Results reported in the nanobody polyreactivity screen of Harvey et al. (2022).

Assay: yeast display, Sf9 membrane polyspecificity reagent, FACS + sequencing; frameworks hold sequencing errors
Method in brief: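 Using colony PCR, genes from sorted yeast display clones were amplified, then sequenced on MiSeq at 2 × 250 and filtered by CDR length. The clones had been stained with 10% biotinylated, detergent-solubilized Sf9 membrane reagent for 1 hour at 4 °C and sorted by FACS into low and high (top ~1%) gates on anti-HA and streptavidin fluorescence. Polyreactivity labels come from the gate of origin.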

Sequence | polyreactivity (PSR sort gate)
QVQLVESGGGIVQAGGTLRLSCAASGSTFFYYVMGWYRQAPGKERELVAAITSSGGGTYYADSVKGRFTISRDNAKNTVYLQMKSLKPEDTAVYYCAKPVWWRDYRHGGRFGYWGQGTQVTVSS | low polyreactivity
QVQLVESGGCLVQAGGSLRLSCADSGSTFVIYYMGWYRQAPGKERELVAAISYSGGSTYYADSVKGRFTISRDNAKNTVYLQMNSLKPEDTAVYYGYDYWGQGTQVTVSS | low polyreactivity
QVQLVEAGGGLVQAGGSLRLSCAASGSIFFIYAMGWYRQAPGKERELVAAITSGDRTYSADSVKGRFTISRDNAKNTVYLQMNSLKPEDTAVYYCNADYYISYWGQGTQVTVSS | low polyreactivity
QVQLVESGGGLVQAGGSLRLSCAASGSTFVYNAMGWDRQAPGKERELVAAITVSDGSTYYADSVKGRFTISRDNAKNTVYLHMKSLKPEDTAVFYCNADFPRKTRYEYWGQGTQVTVSS | low polyreactivity
QVQLVESGGGLVQAGGSLRLSCAASGSIFVGYAMGWYRQAPGKERELVAAISKRGGGTYYADSVKGRFTISRDNAKNTVYLQMNSLKPEDTAVYYCNAVTVHLDVASGYYYWGQGTQVTVSS | high polyreactivity
QVKLVESGGGLVQAGGSLRLSCAASGLTLQWYALGWYRQAHGKERDLVAAISYNGGDTYYADSVKGRFTISRDNAKNTVYLQMNSLKPEDTAVYYCAAYWYVGVNYSQRRDYWGQGTQVTVSS | low polyreactivity
QVQLVESGGGLVQAGGSLRLSCAASGRTFVRYAMGWYRQAPGKERELVAAISGDGASTYYADSVKGRFTISRDNAKNTVYLQMNSLKPEDTAVYYCNARSIRRYYYPDYDYWGQGTQVTVSS | high polyreactivity
QVQLVESGGGLVQAGGSLRLSCAASGGTFDYYAMGWYRQAPGKERELVAAITRGSTNYADSVKGRFTISRDNAKNTVYFQMNSLKPEDTAVYYCAARGRFVTPQPSYDYWGQGTQVTVSS | high polyreactivity
QVQLVESGGGLVQAGGSLRLSCAASGIIFYHNAMGWYRKAPGKERELVATIRSSGDGTYYADSVKGRFTISRDNAKNTVYLQMNSLKPEDTAVYYCAAYWAHSYSYSVSRRYYYWGQGTQVTVSS | low polyreactivity
QVQLVQSGGGLVQAGGRLRLSCAASGRIFYYYTMGWYRQAPGKERELVAVISRSGDRTYYADSVKGRFTISRDIAKNTVYLQMNSLKPEDTAVYYCATRWSSARMDYCGQGTQVTVSS | high polyreactivity
QVQLVESGGGLVQAGGSLRLSCAASGSIFYSYAMGWYRQAPGKERELVAAISYSSGSTYYADSVKGRFTISRDNAKNTVYLQMNSLKPEDTAVYDCAAEGNGWQVDVTEVGEYDSWGQGTQVTVSS | high polyreactivity
QVQLVESGGGLVQAGGSLRLSCAASGSTLLGNTMGWYRQAPGKERELVAAISWSGGSTYYADSVKGRFTISRDNAKNTVYLQMNSLKPEDTAVYYCNALGRENKGSYGYDYWGQGTQVTVSS | low polyreactivity
QVQLVESGGCLVQAGGRLRLICAASGRTFFFNAMGWYRQAPGKERELVAAISRGGSRTFYADSVKGRFTISRDNEKNTVYLQMNSLKPEDNAVYYCNDVAQSGRYDYWGQGTQVTVSS | high polyreactivity
QVQLVESGGGLVQAGGSLRLSCAASGSTFSLNDMGWYRQAPGKERELVAVISSSTGITYYADSVKGRFTISRDNAKNTVYLQMNSLKPEDTAVYYCNADKWEVYYTRMYYWGQGTQVTVSS | low polyreactivity
QVWLQESGRGLLQACGSLRLSCAASGTISRDIFMGWYRQAPGKEREFVATIAQGGITNYADSVKGRFTISRDNAKNTVYLQMNSVKPGDTAVYFCAARDGNCYWFYYWGQGTQVTVSS | high polyreactivity
QVQLVESGGGLVQAGGSLRLSCAASGRTFYLYAMGWYRQAPGKERELVAAITRRGGSTYYADSVKGRFTISRDNAKNTVYLQMNSLKPEDTAVYYCAADRPGTGYSDYDYWGQGTQVTVSS | high polyreactivity
QVQLVESGGGLLQAGGSLRLSCAASGITFDGNAMGWYRQAPWKERELVAGISGSGGGTYYADSVKGRFTISRDNAKNTVYLQMNSLKPEDTEVYYCAADTSTSHAYDYWGQGTQVTVSS | low polyreactivity
QDQLVVSGGGLVQAGGSHSLSCAASGSIFIGYSMGWYRQAPGQERELVAAITSSGRTNYADSVKGRFTISRDNAKNTVYLQMTILKPEDTAVYYCNAEGYQFFTFDYWGQGTQVTVSS | low polyreactivity
QVQLVESGGGLVQAGGTLRLSCAASGSILGGNAMGWYRQAPGKERELVAAITFSGGGTYYADSVKGRFTISRDNAKNTVYLQMNSLKPEDTAVYYCAADKDGYTYEFDYWGQGTQVTVSS | low polyreactivity
QVNLVDSGGGLVQAGGSLRLSCAASGSTFRNNAMGWSRQAPGKERELVAVITGDGGSTYYADSVKGRFTISRDNAKNTVYLQMNSLKPEDTAVYYCNARSIRYYRFRLRFGYWGQGTQVTVSS | low polyreactivity
QVQLVESGGGLVQEGGSLRVSCAASGRIFANNAMAGYRQAPGKERELLAAISWSGGNTYYADSVKGRFTISRDNAKNTVYVQMNSLKPDDTAVYYCGAGSPRYSNNYVSYKGWDYSCGQGTQVTVSS | high polyreactivity
QVQLVESGGGLVQAGGSLRLSCAASGRIFGYNAMGWYRQAPGKERELVAAISSTGNTYYADSVKGRFTISRDNAKNTVYLQMNSLKPEDTAVYYCARSWLYSQRRYDYWGQGTQVTVSS | low polyreactivity

Sequence | polyreactivity (PSR sort gate)
QVQLVESGGGLVQAGGSLRLSCAASGSTFVGYAMGWYRQAPGKEMEFVAAITRGGSTNYADSVKGRFTISRDNAKNTVYLQMNSLKPEDTAVYYCAARDRREGFIFDYWGQGTQVTVSS | low polyreactivity
QVQLVESGGGLVQAGGSLRLSCAASGFTFYRYAMGWYRPAPGKERELVAAITRVGSTYYADSVKGRFTISRDNAKNTVYLQMNSLKPEDTAVYYCNARGTVPWYGYDYWGQGTQVTVSS | high polyreactivity
QLQLVESGGGLVQAGGSLRLSCAASGSIYYEKVMGWYRQAPGKERELVAGISRSGGRTYYADSVKGRFTISRDNAKNTVYLQMNSLKPEDTAVYYCAALTPRNRYRKFDYWGQGTQVTVSS | high polyreactivity
QVQLVESAGGLVQAGGSLRIICAASGRIFSVNSMGGYRQAPGKERELDATIRTDGTTNYADSVKGRFTISRDNAKNTVYLQMNSLQPGDPAVYYCNARIPYSWRYGYWGQGTQVTVSS | high polyreactivity
QVQLVESGGGLVQAGGSLRLSCAASGILSNYYAMGWYRQAPGKERELVASIRLSGGRTYYADSVKGRFTISRDNAKNTVYLQMNSLKPEDTAVYYCAAGTRRTYSKFDYWGQGTQVTVSS | high polyreactivity
QVQLVESGGGLVQAGGSLRLSCAASGRIFARYAMGWYRQAPGKERELVASINSGGNTYYADSVKGRFTISRDNAKNTVYLQMNSLKPEDTAVYYCAAVVGRRASSRSRFEYDYWGQGTQVTVSS | low polyreactivity
QDQLVESGGGLVQAGGSLRLSCAASGSIFGVYAMGWYRQAPGKEGELVAAISWTDGTTYYADSVKGRFTISRDNAKNTVYLQMNSLKQEDTAVYYCAVTYPRVAKVMYYWGQGTQVNVSS | high polyreactivity
QVQLVESGGVLVQEGGSLRLICAASGSIFGYYVMGWYRQAPGKERELVAAISRSGGSTYYADSVKGLFTISRDNAKTTVYLQMNSLKQEDTAVYYCAASFAVRYPRLDYWGQGTQVTVSS | high polyreactivity
QVQLVESGGGLVQAGGSLRLSCAASGITFLSNAMGWYRQAPGKERELVAAISRGGGTTYYADSVKGRFTISRDNAKNTVYLQMNSLKPEDTAVYYCATESTHTRRSWYEYWGQGTQVTVSS | high polyreactivity
QVQLVESGGGLVQAGGSLRLSCAASGRIFTSNAMGWYRQAPGKERELVASITSSSSTNYADSVKGRFTLSRDNAKNTVYLQMNSLKPEDTAVYYCAAERVWPYGHDYWGQGTQVTVSS | low polyreactivity
QVQLVESGGGLVQAGGSLRLSCAASGRIFAGYAMGWYRQAPGKERELVATITYRGGNTYYADSVKGRFTISRDNAKNTVYLQMNSLKPEDTAVYYCAKGPYRYLYRAYPGGYWGQGTQVTVSS | high polyreactivity
QDHLVESGGGLVQAGGSLRLSCAASGRIFTPNAMGWYRQAPGKERELVAAITSGGSTNYADSVKGRFTISRDNAKNTVYLQMNSLKPQDTAVYYCAVRYYYCSKKRNYWGQGTHVTVSS | high polyreactivity
QVQLQESGGGMVQAGGSLRLSSAASGYISWADSMGWYRQAPGKERELVAGIGYGSTTYYADSVKGRFTISRDNAKNTAYLQMNSLKPEDTAVYYCSVGWYRDTAYKYWGQGTQVTVRS | low polyreactivity
QVQLVVSGGGLVQAGGSLRLSCAASGSIFLVNVMGGDRQAPGKERELVAAITWSGGRTYYADSVKGRFTISRDNAKNTVYLPRNSRLPEDTAVYYCAAQTPRFVWQKGPLDSEDYWGQGTQVTVSS | high polyreactivity
QVQLVESGGGLVQAGGSLRLSCAASGLTFGGNAMGWYRPAPGKERELVAAISWSDHTTDYADSVKGRFTISRDKSKNSVYFQMKRLKPEDTAVYYCAARLPFEHVDYWGQGTQVTVSS | low polyreactivity
QVQLVESGGGLVQAGGSLRLSCAASGRTFGRNVMGWYRQAPGKERELVAAISRSGGSTYYADSVKGRFTISRDNAKNTVYLQINSLKPEDTAVYYCAAYSVGDYYWGQGTQVTVSS | high polyreactivity
QVQLVESGGGLVQAGGSLRLSCAASGFTFYRYAMGWYRQAPGKERELVAAITWSGGSTYYADSVKGRFTISRDNAKNTVYFQMNSLKPEDTAVYYCAASRWIFQVNDYDYWGQGTQGTVSS | high polyreactivity
QVQLVESGGGLVQAGGSLRLSCAASGRIFTGYAMGWYRQAPGKEREFVAAITGRGGSTYYADSVKGRFTISRDNAKNTVYLLMNSLKPEDTAVYYCNALPRSPWYYRGDYWGQGTQVTVSS | high polyreactivity
QVQLVESGGGLVQAGGSLRLSCAASGFTFLSNAMGWYRQAPVKERELVAGISWDAGSTNYADSVKGRVTISRDNAKNTVYLQMNSLKPEDTAVYYCNADDSTGSRFYIEYDYWGQGTQVTVSS | low polyreactivity
QVQLVESGGGLLQAGGSLRLSCAASGFILNAYTMGWYRQAPGKERELVATITINGGSTYYADSVKGRFTISRDNAKNTVYLQMNSLKPEDTAVYYCNADYWYKYDYWGQGTQVTVSS | low polyreactivity
QVQLVESGGGLVQAGGSLRLSCAASGLIFYYYAMGWYRQAPWKEREFVAAISRSGGIKRYADSVKGRFTISRDNAKNTVYLQMNSLKPEDTAVYYCAARYYYRHAQSFPWSNRWSSYYYWGQGTQVTVSS | high polyreactivity
